Assay [1] deals with His-tagged human FcγRIa monomeric ECD (Sino Biological) (human) (UniProt P12314). Nature of the assay: BLI, FcγR on Ni-NTA sensor, 1:1 global fit.
Assay [2] concerns the target His-tagged murine FcγRI monomeric ECD (Sino Biological) (murine) (UniProt P26151). Nature of the assay: BLI, FcγR on Ni-NTA sensor, 1:1 global fit. On the technique in general: In BLI a coated tip is dipped into the sample, and binding shifts an interference pattern.
The target in assay [3] is His-tagged cynomolgus FcγRI monomeric ECD (R&D Systems) (cynomolgus (Macaca fascicularis)). Nature of the assay: BLI, FcγR on Ni-NTA sensor, 1:1 global fit.
The target in assay [4] is His-tagged biotinylated murine FcγRIV monomeric ECD (Sino Biological) (murine). Nature of the assay: BLI, FcγR on SA sensor, steady state.
Assay [5] has as its target His-tagged biotinylated murine FcγRIIb monomeric ECD (Sino Biological) (murine) (UniProt P08101). The assay can be described thus: BLI, FcγR on SA sensor, steady state.
Assay [6] concerns the target His-tagged biotinylated human FcγRIIIa allotype 158V monomeric ECD (Sino Biological) (human) (UniProt P08637). Nature of the assay: BLI, FcγR on SA sensor, steady state.
The target in assay [7] is His-tagged biotinylated cynomolgus FcγRIIa monomeric ECD (Sino Biological) (cynomolgus (Macaca fascicularis)). The assay can be described thus: BLI, FcγR on SA sensor, steady state.
In assay [8] the target is His-tagged biotinylated cynomolgus FcγRIII monomeric ECD (ACROBiosystems) (cynomolgus (Macaca fascicularis)) (UniProt Q8SPW2). Nature of the assay: BLI, FcγR on SA sensor, steady state.
The target in assay [9] is His-tagged biotinylated cynomolgus FcγRIIb monomeric ECD (Sino Biological) (cynomolgus (Macaca fascicularis)). Nature of the assay: BLI, FcγR on SA sensor, steady state.
The target of assay [10] is His-tagged biotinylated murine FcγRIII monomeric ECD (Sino Biological) (murine) (UniProt P08508). Nature of the assay: BLI, FcγR on SA sensor, steady state.
Assay [11] deals with FcγRIIIa on natural killer cells in human PBMC (human) (UniProt P08637). Nature of the assay: cell-based or functional assay.
The target in assay [12] is His-tagged biotinylated human FcγRIIa allotype 131H monomeric ECD (Sino Biological) (human) (UniProt P12318). The assay can be described thus: BLI, FcγR on SA sensor, steady state.
Assay [13] has as its target His-tagged biotinylated human FcγRIIb monomeric ECD (Sino Biological) (human) (UniProt P31994). The assay can be described thus: BLI, FcγR on SA sensor, steady state.
In assay [14] the target is His-tagged biotinylated human FcγRIIIa allotype 158V monomeric ECD (Sino Biological) (human) (UniProt P08637). Nature of the assay: BLI, steady state; responses did not reach a plateau.
Assay [15] addresses His-tagged biotinylated murine FcγRIV monomeric ECD (Sino Biological) (murine). Nature of the assay: BLI.
Assay [16] has the same target. The assay can be described thus: BLI, steady state; responses did not reach a plateau.
In assay [17] the target is His-tagged biotinylated human FcγRIIIa allotype 158V monomeric ECD (Sino Biological) (human) (UniProt P08637). Described as above. This is another data set of the same source.
In assay [18] the target is His-tagged human FcγRIa monomeric ECD (Sino Biological) (human) (UniProt P12314). Nature of the assay: BLI, 1:1 global fit; analysis not optimal, <4 fits.
The target of assay [19] is His-tagged murine FcγRI monomeric ECD (Sino Biological) (murine) (UniProt P26151). Nature of the assay: BLI.
The target is the same in assay [20]. The assay can be described thus: BLI, 1:1 global fit; analysis not optimal, <4 fits.

His-tagged biotinylated murine FcγRIV monomeric ECD (Sino Biological) (murine), sequence (A0A0B4 entry or part of it limits assumed): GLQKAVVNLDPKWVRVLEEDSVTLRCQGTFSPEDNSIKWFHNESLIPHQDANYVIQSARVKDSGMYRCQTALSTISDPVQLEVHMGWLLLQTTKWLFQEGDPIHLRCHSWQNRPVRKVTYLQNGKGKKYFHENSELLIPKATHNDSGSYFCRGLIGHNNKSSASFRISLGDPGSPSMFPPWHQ
His-tagged biotinylated human FcγRIIIa allotype 158V monomeric ECD (Sino Biological) (human), sequence (P08637 17-208 F176V): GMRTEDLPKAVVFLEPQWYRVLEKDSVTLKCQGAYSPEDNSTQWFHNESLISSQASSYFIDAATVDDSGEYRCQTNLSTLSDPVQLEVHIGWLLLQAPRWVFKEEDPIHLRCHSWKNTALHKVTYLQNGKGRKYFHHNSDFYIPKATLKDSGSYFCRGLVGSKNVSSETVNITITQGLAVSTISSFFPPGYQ
His-tagged murine FcγRI monomeric ECD (Sino Biological) (murine), sequence (P26151 25-297): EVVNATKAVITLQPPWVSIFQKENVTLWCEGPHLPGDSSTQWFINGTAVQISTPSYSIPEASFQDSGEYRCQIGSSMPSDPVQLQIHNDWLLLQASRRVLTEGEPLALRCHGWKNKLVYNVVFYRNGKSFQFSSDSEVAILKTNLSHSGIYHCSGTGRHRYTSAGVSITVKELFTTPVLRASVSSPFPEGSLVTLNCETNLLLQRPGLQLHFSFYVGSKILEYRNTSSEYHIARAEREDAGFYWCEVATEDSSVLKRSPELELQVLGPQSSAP
His-tagged human FcγRIa monomeric ECD (Sino Biological) (human), sequence (P12314 16-292): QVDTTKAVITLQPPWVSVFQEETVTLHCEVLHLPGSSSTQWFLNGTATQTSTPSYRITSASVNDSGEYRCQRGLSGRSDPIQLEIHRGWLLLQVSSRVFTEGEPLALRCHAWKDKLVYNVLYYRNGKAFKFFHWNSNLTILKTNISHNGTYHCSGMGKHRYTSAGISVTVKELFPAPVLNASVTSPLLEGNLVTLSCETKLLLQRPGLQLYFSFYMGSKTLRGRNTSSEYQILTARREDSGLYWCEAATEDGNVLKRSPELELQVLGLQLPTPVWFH
His-tagged biotinylated murine FcγRIII monomeric ECD (Sino Biological) (murine), sequence (P08508 31-215): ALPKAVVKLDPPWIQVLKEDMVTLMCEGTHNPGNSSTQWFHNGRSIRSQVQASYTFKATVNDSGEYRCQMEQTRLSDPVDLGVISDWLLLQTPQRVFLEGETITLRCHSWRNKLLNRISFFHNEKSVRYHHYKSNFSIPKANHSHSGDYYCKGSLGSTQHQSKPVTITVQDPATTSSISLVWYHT
His-tagged biotinylated murine FcγRIIb monomeric ECD (Sino Biological) (murine), sequence (P08101 30-210): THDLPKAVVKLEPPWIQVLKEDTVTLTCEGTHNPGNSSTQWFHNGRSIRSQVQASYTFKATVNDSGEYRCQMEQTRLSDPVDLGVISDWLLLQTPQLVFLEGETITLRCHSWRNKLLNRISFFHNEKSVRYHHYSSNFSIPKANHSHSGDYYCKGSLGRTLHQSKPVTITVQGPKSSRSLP
FcγRIIIa on natural killer cells in human PBMC (human), sequence (P08637 17-254): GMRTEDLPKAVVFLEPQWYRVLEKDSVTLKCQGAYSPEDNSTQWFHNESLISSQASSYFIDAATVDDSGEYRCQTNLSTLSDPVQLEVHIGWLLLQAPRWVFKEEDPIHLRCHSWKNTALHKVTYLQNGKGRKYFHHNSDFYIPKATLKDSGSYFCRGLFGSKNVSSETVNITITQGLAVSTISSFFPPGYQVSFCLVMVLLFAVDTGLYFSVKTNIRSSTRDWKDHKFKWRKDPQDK
His-tagged biotinylated cynomolgus FcγRIII monomeric ECD (ACROBiosystems) (cynomolgus (Macaca fascicularis)), sequence (Q8SPW2 17-208): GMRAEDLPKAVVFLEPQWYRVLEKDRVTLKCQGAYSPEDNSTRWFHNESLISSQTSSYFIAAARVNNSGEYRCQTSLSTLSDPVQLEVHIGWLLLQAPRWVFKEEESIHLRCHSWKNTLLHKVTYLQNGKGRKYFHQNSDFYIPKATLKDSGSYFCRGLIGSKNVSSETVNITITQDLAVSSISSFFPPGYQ
His-tagged biotinylated human FcγRIIa allotype 131H monomeric ECD (Sino Biological) (human), sequence (P12318 34-217): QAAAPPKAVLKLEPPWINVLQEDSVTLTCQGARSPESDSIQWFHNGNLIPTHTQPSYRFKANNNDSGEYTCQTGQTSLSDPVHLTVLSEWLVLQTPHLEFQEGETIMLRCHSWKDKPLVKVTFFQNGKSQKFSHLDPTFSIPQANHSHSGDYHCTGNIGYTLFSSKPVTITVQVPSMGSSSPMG
His-tagged biotinylated human FcγRIIb monomeric ECD (Sino Biological) (human), sequence (P31994 43-217): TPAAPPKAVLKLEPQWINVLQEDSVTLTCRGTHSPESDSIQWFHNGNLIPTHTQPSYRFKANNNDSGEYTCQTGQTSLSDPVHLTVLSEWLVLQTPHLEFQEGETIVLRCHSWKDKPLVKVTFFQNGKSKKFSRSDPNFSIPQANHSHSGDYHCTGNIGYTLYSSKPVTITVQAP

Turning to “wild-type anti-human CD20 IgG1 antibody (IgG1-CD20)”, the Kd (commonly a measure of binding affinity in units of concentration) in assay [1] is 1.84 nM; in assay [2], 124 nM; in assay [3], 0.626 nM; in assay [4], 1040 nM; in assay [5], 2850 nM; in [6], 565 nM. Besides, the dissociation constant (Kd) amounted to 4250 nM in [7], 415 nM in assay [8], 3900 nM in [9] and 7450 nM in [10].

Take “anti-human CD20 IgG1-L234F-L235E-G236R-K409R (antibody)”: the reduction of ADCC of Raji cells in [11] came to 69%.

In the case of “wild-type murine anti-human CD20 IgG2a antibody”, the Kd in assay [1] turned out to be 1.27 nM; in assay [2], 3.82 nM; in assay [12], 1850 nM; in [4], 145 nM; in assay [5], 6400 nM; in [13], 17000 nM. The figures for the Kd in [6] and in assay [10] were 1950 nM and 6900 nM, respectively. For the same substance, the koff – broadly, the rate constant with which the complex falls apart – in [1] worked out at 0.00039 s⁻¹; in assay [2], 0.000619 s⁻¹. Also, the values for the kon in assay [1] and in [2] were 311000 M⁻¹ s⁻¹ and 162000 M⁻¹ s⁻¹, respectively.

With “murine anti-human CD20 IgG2a-L234A-L235A (antibody)”, the Kd is 13800 nM in [14]; 238 nM in [2]; 13800 nM in assay [16]; 11700 nM in assay [17]; 3610 nM in assay [18]. Further, in assay [15], the fold reduction vs wt IgG2a was determined as 100 fold. Further, the koff in [2] amounted to 0.00231 s⁻¹; in assay [18], 0.0163 s⁻¹. For the same substance, the kon (usually the rate constant with which the complex forms) in [2] came out at 9730 M⁻¹ s⁻¹; in assay [18], 4530 M⁻¹ s⁻¹.

With “murine anti-human CD20 IgG2a-L234F-L235E-G236R (antibody)”, the fold reduction of binding affinity vs wild-type IgG2a in assay [19] is 100 fold. Moreover, in [20], the Kd was found to be 430 nM, the koff is 0.00227 s⁻¹ and the on-rate constant (kon) stood at 5300 M⁻¹ s⁻¹.

In [19], “murine anti-human CD20 IgG2a-L234A-L235A-P329G (antibody)” had a fold reduction of binding affinity vs wild-type IgG2a of 100 fold. Moreover, in assay [20], the Kd worked out at 364 nM, the koff came to 0.002 s⁻¹ and the kon was found to be 5500 M⁻¹ s⁻¹.

The record behind these values is patent publication US20240150484A1.
